Data on one molecule can be found in publication PMC3420232, “The Transmembrane Domains of TNF-Related Apoptosis-Inducing Ligand (TRAIL) Receptors 1 and 2 Co-Regulate Apoptotic Signaling Capacity” (PLoS ONE, 2012).

This assay concerns the target T1, wild-type human TRAILR2 (human, UniProt O14763 56-440).
T1 construct: TRAIL receptor 2 (TRAILR2, DR5), human, wild type; the printed numbers (transmembrane region ending at 231, GIIIG at 212-216, stalk of about 34 aa) fit the long form; also called DR5; TRICK2; source: immortalized mouse fibroblasts (MF), stably transfected, on cells
The experiment in a line: radioligand binding; competition on cells: 4x10^5 murine fibroblasts expressing the (chimeric) TRAIL receptor in PFA (PBS, 2% FCS, 0.002% sodium azide), 83 ng/ml 125I-TRAIL with or without unlabeled recombinant human TRAIL (83-5300 ng/ml), 4 hours on ice; cells spun through phthalate oil; 68 kDa used for TRAIL. The note with it: one partner purified.

B1: Flag-tagged recombinant human TRAIL (sTRAIL), unlabeled (ligand, UniProt P50591 95-281, looked up)
chain: TSEETISTVQEKQQNISPLVRERGPQRVAAHITGTRGRSNTLSSPNSKNEKALGRKINSWESSRSGHSFLSNLHLRNGELVIHEKGFYYIYSQTYFRFQEEIKENTKNDKQMVQYIYKYTSYPDPILLMKSARNSCWSKDAEYGLYSIYQGGIFELKENDRIFVSVTNEHLIDMDHEASFFGAFLVG
notes: TRAIL (TNF-related apoptosis-inducing ligand), human, soluble recombinant form (sTRAIL); no removal of the tag is told; also called FLAG-TRAIL; non-labeled TRAIL; source: bought: Axxora (Lörrach, Germany)
On to B1, for which the IC50 is 3.5 nM.
